Tests used:
[1] = target: DNA-binding domain of Listeria monocytogenes DegU (lmDegUDBD) (Listeria monocytogenes ATCC 15313) (UniProt Q6DL91); assay: crystal structure; lmDegUDBD alone, two chains (A and B) in the asymmetric unit; crystals from 22% PEG 3350, 0.1 M Tris pH 8.0, 18 °C; 2.39 Å
[2] = target: DNA-binding domain of Listeria monocytogenes DegU (lmDegUDBD) (Listeria monocytogenes ATCC 15313) (UniProt Q6DL91); assay: cross-linking; 5 μg protein in 20 mM Hepes pH 7.4, 300 mM sodium chloride, 5 mM β-mercaptoethanol with EDC and sulfo-NHS, 5 min at room temperature; SDS-PAGE, Coomassie staining
[3] = target: lmDegUFL (Listeria monocytogenes ATCC 15313, UniProt Q6DL91 1-228); assay: fluorescence polarization; unphosphorylated; conditions: protein: recombinant; tags: C-terminal His6; chain copies: 2; blunt
[4] = target: lmDegUFL D55N (Listeria monocytogenes ATCC 15313, UniProt Q6DL91 1-228, D55N); assay: fluorescence polarization; comparable to lmDegUFL; conditions: protein: recombinant; tags: C-terminal His6; chain copies: 2; blunt
[5] = target: lmDegUFL D55E (Listeria monocytogenes ATCC 15313, UniProt Q6DL91 1-228, D55E); assay: fluorescence polarization; affinity not significantly changed vs lmDegUFL; conditions: protein: recombinant; tags: C-terminal His6; chain copies: 2; blunt
[6] = target: T1, lmDegUDBD (Listeria monocytogenes ATCC 15313, UniProt Q6DL91 159-228); assay: fluorescence polarization; conditions: protein: recombinant; tags: N-terminal His6 removed by thrombin; chain copies: 2; blunt
T1 sequence: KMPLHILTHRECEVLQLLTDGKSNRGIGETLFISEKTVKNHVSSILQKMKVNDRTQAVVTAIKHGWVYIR

[7] = target: lmDegURD (Listeria monocytogenes ATCC 15313, UniProt Q6DL91 1-143); assay: EMSA; no shift; conditions: protein: recombinant; tags: N-terminal His6 removed by TEV; chain copies: 2; blunt

DNA-binding domain of Listeria monocytogenes DegU (lmDegUDBD) (from UniProt Q6DL91 159-228) (domain or fragment)
stoichiometry N [1]: 2
stoichiometry N [2]: 2

B1: fliN-gmaR operator 36-bp dsDNA, fluorescein (dsDNA)
DNA 1: CGAGTAGGTCAAAAGGATTGGGTATGAAGAACCTTT
DNA 2: AAAGGTTCTTCATACCCAATCCTTTTGACCTACTCG
Kd [3]: 0.173 ± 0.026 µM
binding result [4]: binds
binding result [5]: binds
Kd [6]: 6.7 ± 2.3 µM

B2: fliN-gmaR operator 36-bp dsDNA, unlabeled (dsDNA)
DNA 1: B1 DNA 1
DNA 2: B1 DNA 2
binding result [7]: no binding

From PMC9263151, “Structural and biochemical analyses of the flagellar expression regulator DegU from Listeria monocytogenes”
